From patent US9540424B2, “Serum albumin binding molecules” (BRISTOL-MYERS SQUIBB COMPANY, priority 2010, dated 2017)

Key:
HSA = HSA (Homo sapiens, UniProt P02768); test: SPR (Biacore T100) kinetics of FGF21-SABA1 fusions: HSA; format: binding; details: flow rate 30 μl/min
Experimental: The binding competency and thermodynamic characterization of FGF21-SABA fusion variants to human serum albumin were performed using Isothermal Titration calorimetry on a Microcal VP-ITC instrument (Microcal Inc. Amherst Mass., USA). […] The detailed experimental conditions are described below.
For the calorimetry assay, the FGF21-SABA variant SABA1-FGF21v1 (SEQ ID NO: 132) was used. […] For the SPR studies, SABA1-FGF21v1 and SABA1-FGF21v3 (SEQ ID NO: 134) were examined.
Serum albumins were dissolved in PBS buffer (10 mM sodium phosphate, 130 mM sodium chloride, pH 7.1) to a concentration of 10 mg/ml, and subsequently diluted to 8-10 μg/ml in 10 mM sodium acetate pH 5.0 for immobilization. Serum albumins were immobilized on a Series S CMS sensor chip using standard ethyl(dimethylaminopropyl) carbodiimide (EDC)/N-hydroxysuccinimide (NHS) chemistry in HBS-EP+ running buffer at 25° C., following general manufacturer guidelines. Flow cell 1 was activated with EDC/NHS and blocked with ethanolamine. […] Kinetic experiments were performed in PBS buffer containing 0.05% tween-20 (running buffer) at either 25° C. or 37° C. […] These samples were injected across flow cells 1-4 for 300 s, with a 420 s dissociation time, at flow rates of 30 μl/min or 60 μl/min to check for mass transfer limitation. All surfaces were regenerated with 2 pulses of 10 mM glycine pH 2.0 at 30 μl/min for 30 s. Raw sensograms were “double-referenced” by subtracting flow cell 1 data from flow cell 2, 3 or 4 data, and then subtracting a separate buffer cycle from each sensogram. The double-referenced sensogram data was fitted to a 1:1 Langmuir model using Biacore T100 Evaluation software version 2.0.2 to determine the association rate constant (ka), the dissociation rate constant (kd), and the equilibrium dissociation constant (KD).

diabetic ob/ob mice = test: HbA1c in diabetic ob/ob mice after 14 days of SABA1-FGF21v1 premixed with HSA; format: in vivo, mouse; details: for plasma levels: […] hours after the last dose
Experimental: HbA1c was measured in plasma samples 24 hours after the last dose (see FIG. 19).
SABA1-FGF21v1 plasma levels at the 0.01, 0.1 and 1 mg/kg doses were 3.85, 2.28 and 28.73 ng/ml respectively, 24 hours after the last dose.

B1: SABA1-FGF21v1: SABA1-FGF21 fusion, SEQ ID NO: 132; 293 aa; DNA SEQ ID NO: 184 (protein)
chain: MGVSDVPRDLEVVAATPTSLLISWHSYYEQNSYYRITYGETGGNSPVQEFTVPYSQTTATISGLKPGVDYTITVYAVYGSKYYYPISINYRTEIEKPSQGSGSGSGSGSGSGSPIPDSSPLLQFGGQVRQRYLYTDDAQQTEAHLEIREDGTVGGAADQSPESLLQLKALKPGVIQILGVKTSRFLCQRPDGALYGSLHFDPEACSFRELLLEDGYNVYQSEAHGLPLHLPGNKSPHRDPAPRGPARFLPLPGLPPALPEPPGILAPQPPDVGSSDPLSMVGPSQGRSPSYAS
- ka (HSA; 25° C.): 3380 M⁻¹ s⁻¹
- kd (HSA; 25° C.): 0.000333 s⁻¹
- ka (HSA; 37° C.): 5960 M⁻¹ s⁻¹
- kd (HSA; 37° C.): 0.00111 s⁻¹
- plasma levels (diabetic ob/ob mice; 0.01 mg/kg dose): 3.85 ng/mL
- decrease in HbA1c compared to baseline (diabetic ob/ob mice; 0.01 mg/kg with HSA 6 mg/kg, s.c. q.d. 14 days): no decrease
- plasma levels (diabetic ob/ob mice; 0.1 mg/kg dose): 2.28 ng/mL
- decrease in HbA1c compared to baseline (diabetic ob/ob mice; 0.1 mg/kg with HSA 6 mg/kg, s.c. q.d. 14 days, not statistically significant): 0.39%
- plasma levels (diabetic ob/ob mice; 1 mg/kg dose): 28.73 ng/mL
- decrease in HbA1c with respect to baseline (diabetic ob/ob mice; 1 mg/kg with HSA 6 mg/kg, s.c. q.d. 14 days): 0.9%
- vehicle subtracted decrease in HbA1c (diabetic ob/ob mice; 1 mg/kg with HSA 6 mg/kg, s.c. q.d. 14 days, statistically significant): 0.94%
